We go through 2 molecules from patent publication US20250346679A1 (INVOX PHARMA, published 2025).

The target in assay [1] is T1, mouse FcRn (R&D systems, 9114-Fc) (mouse, UniProt Q61559 22-297; P01887 21-119, limits assumed).
T1 sequence (looked up) 1: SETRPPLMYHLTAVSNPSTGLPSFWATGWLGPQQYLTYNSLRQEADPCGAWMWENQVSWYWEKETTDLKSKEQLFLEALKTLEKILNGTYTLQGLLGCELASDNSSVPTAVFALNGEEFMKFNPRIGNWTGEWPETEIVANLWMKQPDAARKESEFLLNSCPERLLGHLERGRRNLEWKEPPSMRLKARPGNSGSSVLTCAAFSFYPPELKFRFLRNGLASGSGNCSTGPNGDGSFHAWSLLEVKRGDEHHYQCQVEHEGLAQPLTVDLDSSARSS
T1 sequence (looked up) 2: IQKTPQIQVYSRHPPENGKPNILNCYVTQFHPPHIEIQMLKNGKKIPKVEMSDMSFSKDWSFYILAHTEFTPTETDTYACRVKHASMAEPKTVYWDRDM
The assay can be described thus: SPR, antibody immobilised, FcRn in flow, pH 6.0, steady state affinity; pH 6.0. An excerpt:
(§1) The neonatal Fc receptor (FcRn) binding is critical for antibody recycling (Martins et al., 2016). […] G1-AA/HeID1.3 was included as an isotype control IgG control lacking mutations in the CH3 domain.
(§2) Briefly, mAb² were individually coated on flow cell 2, 3 and 4 of Series S Sensor Chip CM5 (GE Healthcare, BR100530) to achieve a response of approximately 1000 RU. Flow cell 1 was activated/deactivated but left blank as a reference. Human FcRn (Acro Biosystems, FCM-H5286) or mouse FcRn (R&D systems, 9114-Fc) was dialysed and diluted in MHBS-EP⁺B pH 6.0 or pH 7.4 buffer (10 mM MES, FortéBio, 18-5026; 1×HBS-EP, GE Healthcare, BR100669; 0.1 mg/ml BSA, Sigma, A7906) and injected on flow cell 1, 2, 3 and 4 at 2000-3000 nM with 2-fold dilutions for 1 min at 80 μl/min and then allowed to dissociate in buffer for 3 min. […] Subtracted data (flow cell 2−flow cell 1, flow cell 3−flow cell 1, or flow cell 4−flow cell 1) was analysed using Biacore T200 Evaluation Software 2.0 to identify binding using the model steady state affinity.
(Surface plasmon resonance follows binding to a sensor surface in real time, without labels.)

The target of assay [2] is Human FcRn (Acro Biosystems, FCM-H5286) (human, UniProt P55899 24-297; P61769 21-119). The assay is described as above.
From the text: as §1, §2

The target in assay [3] is T2, biotinylated hPD-L1-Avi-His (Acro Biosystems, PD1-H82E5) (human, UniProt Q9NZQ7 19-238, biotinylated).
T2 construct: bought; also called Human PD-L1-His; not shown: Avi and His tags of the bought product
The assay can be described thus: SPR, antibody captured on Protein A chip, antigen in flow.

The target in assay [4] is T3, cPD-L1-His (Acro Biosystems, PD1-C52H4) (cynomolgus, UniProt Q9NZQ7 19-238 (human entry)).
T3 construct: bought; also called Cyno PD-L1-His; Cynomolgus PD-L1-His; not shown: His tag of the bought product
The assay is described as above.

For assay [5], the target named is T4, cynomolgus PD-L1, cell-surface (cynomolgus).
T4 construct: also called HEK.cPD-L1; HEK.cyPD-L1
The assay can be described thus: flow cytometry on HEK.cPD-L1. Here is the method:
(§3) Non-specific binding was also assessed by testing binding to HEK293 parental cells lacking human PD-L1 (Flp-In T-Rex 293 cell line, Life Technologies, R780-07).
(§4) HEK293, HEK.hPD-L1 and HEK.cPD-L1 suspensions were prepared in FACS buffer (DPBS (Gibco, 14190-094) containing 0.5% BSA (Sigma, A7906)) and seeded at 1×10⁵ cell/well in 100 μl in round bottomed 96-well plates (VWR, 734-1797). […] The washed cells were resuspended in the diluted antibody mixture, incubated at 4° C. for 30 minutes, and then washed once in FACS buffer. […] Dead cells were excluded and the fluorescence in the APC channel (638 nm 660/20) was measured. The geometric mean fluorescence intensity (GMFI) values were plotted vs the log concentration of antibody and the resulting curves were fitted using the log (agonist) vs response equation in GraphPad Prism.
In general terms: A flow cytometer gives signals particle by particle.

Assay [6] deals with T5, human PD-L1, cell-surface (human, UniProt Q9NZQ7 19-290).
T5 construct: also called HEK.hPD-L1; PD-L1 on MDA-MB-231, on Promega PD-L1 cells, on primary human cells
The experiment in a line: flow cytometry on activated primary human CD4+ T cells; activated primary human CD4+ T cells. Here is the method: CD137 is rapidly expressed to high levels on activated CD8⁺ T cells and also on activated CD4⁺ T cells with lower levels (Xue-Zhong Yu et al, 2013), therefore Pan T cells were stimulated for 24 hours using Dynabeads™ Human T-Activator CD3/CD28 beads (Thermo, 11132D) according to manufacturer's instructions.
Dead cells were excluded and the fluorescence in the APC channel (638 nm 660/20) was measured to show test antibody binding. The geometric Mean Fluorescence Intensity (GMFI) values were plotted vs the log concentration of antibody and the resulting curves were fitted using the log (agonist) vs response equation in GraphPad Prism.

In assay [7] the target is T5, human PD-L1, cell-surface. The assay can be described thus: cell-based or functional assay.
The target in assay [8] is T5, human PD-L1, cell-surface. The experiment in a line: cell-based or functional assay. This is another data set of the same source.
The target of assay [9] is T5, human PD-L1, cell-surface. The experiment in a line: flow cytometry on HEK.hPD-L1. Here is the method: as §3, §4
The target in assay [10] is T5, human PD-L1, cell-surface. The assay can be described thus: cell-based or functional assay. This is another data set of the same source.
For assay [11], the target named is T5, human PD-L1, cell-surface. The assay can be described thus: cell-based or functional assay. The source holds these as a separate data set.

T5 sequence (Q9NZQ7 19-290): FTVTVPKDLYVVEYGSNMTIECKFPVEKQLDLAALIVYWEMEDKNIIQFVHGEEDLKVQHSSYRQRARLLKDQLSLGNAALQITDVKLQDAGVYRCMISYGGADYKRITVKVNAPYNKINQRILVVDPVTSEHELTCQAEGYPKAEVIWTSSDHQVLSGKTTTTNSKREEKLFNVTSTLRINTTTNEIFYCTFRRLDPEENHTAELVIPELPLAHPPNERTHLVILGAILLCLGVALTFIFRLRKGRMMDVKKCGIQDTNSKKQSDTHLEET
T4 sequence (chain, as listed by the source limits assumed): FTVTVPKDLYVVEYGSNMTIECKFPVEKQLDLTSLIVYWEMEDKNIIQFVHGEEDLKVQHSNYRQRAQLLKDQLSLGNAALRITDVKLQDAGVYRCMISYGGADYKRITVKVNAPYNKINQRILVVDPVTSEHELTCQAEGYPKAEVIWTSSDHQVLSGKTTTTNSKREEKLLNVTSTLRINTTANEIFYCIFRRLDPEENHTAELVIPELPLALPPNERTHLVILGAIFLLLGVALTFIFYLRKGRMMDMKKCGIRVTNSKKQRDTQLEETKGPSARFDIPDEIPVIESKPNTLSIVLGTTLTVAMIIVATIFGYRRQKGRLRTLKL
Sequence of Human FcRn (Acro Biosystems, FCM-H5286) (P55899 24-297 limits assumed, chain 1 of 2): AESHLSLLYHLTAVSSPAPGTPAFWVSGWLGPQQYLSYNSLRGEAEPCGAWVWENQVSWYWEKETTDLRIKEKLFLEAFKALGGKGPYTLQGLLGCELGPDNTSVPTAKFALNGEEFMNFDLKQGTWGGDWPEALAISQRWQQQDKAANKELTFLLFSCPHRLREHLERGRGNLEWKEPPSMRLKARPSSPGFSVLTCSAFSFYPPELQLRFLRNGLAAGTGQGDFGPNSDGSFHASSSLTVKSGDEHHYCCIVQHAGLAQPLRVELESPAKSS
Sequence of Human FcRn (Acro Biosystems, FCM-H5286) (P61769 21-119 limits assumed, chain 2 of 2): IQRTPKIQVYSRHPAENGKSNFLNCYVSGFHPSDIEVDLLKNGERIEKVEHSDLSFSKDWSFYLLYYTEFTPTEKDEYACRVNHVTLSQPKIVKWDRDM
T2 sequence (Q9NZQ7 19-238): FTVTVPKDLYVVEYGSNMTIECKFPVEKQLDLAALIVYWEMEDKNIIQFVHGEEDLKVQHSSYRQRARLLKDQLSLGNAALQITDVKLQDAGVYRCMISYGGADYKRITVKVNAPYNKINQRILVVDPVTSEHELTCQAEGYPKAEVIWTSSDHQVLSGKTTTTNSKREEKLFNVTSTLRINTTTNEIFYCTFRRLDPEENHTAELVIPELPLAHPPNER
T3 sequence (Q9NZQ7 other isoform, or with tags, fused parts or gaps): as the sequence (Q9NZQ7 19-238) above, with A33T, A34S, S62N, R68Q, Q82R, F173L, T185A, T192I, H215L counted along it

B1: G1-AA/HeID1.3 (antibody, human IgG1, kappa, L234A L235A)
heavy: not shown
light: DIQMTQSPASLSASVGETVTITCRASGNIHNYLAWYQQKQGKSPQLLVYNAKTLADGVPSRFSGSGSGTQYSLKINSLQPEDFGSYYCQHFWSTPRTFGGGTKLEIKRTVAAPSVFIFPPSDEQLKSGTASVVCLLNNFYPREAKVQWKVDNALQSGNSQESVTEQDSKDSTYSLSSTLTLSKADYEKHKVYACEVTHQGLSSPVTKSFNRGEC
notes: anti-hen egg lysozyme IgG1 with LALA, isotype control
For B1, the Kd in assay [1] came out at 160 nM; in [2], 1230 nM.

B2: G1-AA/E12v2 (antibody, human IgG1, kappa, L234A L235A, V domains shown)
VH: EVQLVQSGAEVKRPGASVKVSCKASGYPFTSYGISWVRQAPGQGLEWMGWISAYSGGTNYAQKLQGRVTMTTDTSTSTAYMELRSLRSDDTAVYYCARDLFPTIFGVSYYYYWGQGTLVTVSS
VL: DIQMTQSPSTLSASVRDRVIITCRASQSIGNRLAWYQHKPGKAPKLLIYEASTSETGVPSRFSGSGSGTDFTLTISSLQPEDFATYYCQQSYSTPYTFGQGTKLEIKR
notes: anti-PD-L1 IgG1 with LALA
Regarding B2, the Kd was found to be 0.21 nM in assay [3] and 0.37 nM in assay [4]. For the same molecule, the EC50 in assay [5] was 0.6 nM; in assay [6], 0.8 nM; in assay [9], 3.1 nM. Moreover, the “EC50 (nM), IFN-γ release, CEFT antigen recall assay (CD4+ T cell activation)” value in [7] was found to be 0.06 nM. Further, the “EC50 (nM), IFN-γ release, human MLR” value in assay [8] was determined as 0.08 nM. Further, in assay [10], the “EC50 (nM), mouse IL-2 release, DO11.10 / LK35.2 PD-L1 blockade assay” value came out at 1.19 nM. Also, the “EC50 (nM), IFN-γ release, CEF antigen recall assay (CD8+ T cell activation)” value in [11] came to 0.04 nM.

One may read the Kd as the constant that tells how readily two partners part at equilibrium. Low readings indicate higher affinity, high ones lower affinity. One may read the EC50 as the concentration at which the effect is half-maximal. A lower EC50 goes with an effect from little substance.
